{
  "source": "paper PMC10384999",
  "data": [
    {"target": "T1, ArcR (Staphylococcus aureus NCTC8325 (?)) (UniProt Q2FUY1)", "T1 sequence": "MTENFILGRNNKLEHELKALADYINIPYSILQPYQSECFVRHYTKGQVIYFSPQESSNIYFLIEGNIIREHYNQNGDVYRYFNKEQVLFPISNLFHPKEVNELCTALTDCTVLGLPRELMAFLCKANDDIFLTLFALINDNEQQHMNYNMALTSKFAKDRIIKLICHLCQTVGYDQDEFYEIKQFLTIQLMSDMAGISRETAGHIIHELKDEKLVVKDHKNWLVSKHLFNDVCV", "assay": "EMSA", "conditions": "25 mM HEPES, 300 mM NaCl, 1 mM DTT, 10% glycerol, pH 7.8; 30 min at room temperature ([…]) or 37 °C ([…]", "values": [
      {"sequence": "AGCGCGTGTTGTTATGTCGCGAATGGTAATCTTTTCTAAATCTTTTTCTTGTAGTAATTTAGTGAACGCTTGTTTAATGGAGGACTTTGTCTTTCTAATTCGCCTATCTTCTTTCAAAAATAAATCAACCTCCTTGTGTTATTGAACAATGTGGGTGTATTTGTCTATTAATGAACGTATTGATGAACATTGTGTATTGTTTATTCCCACTTACATATTATAATAGACAACATGCGAAATATTCAACACATTGTCTAATAAGGAGGT (double strand) [tetA promoter fragment]", "binding": "no binding"},
      {"sequence": "TCAACTTTGACTAACCCTCGAAATTGAAATGCTTCCTTTCAAATTTTAAATAAAAGTTAAAAACATATTCTTAAAATAATCACTCATCATCACTCAGTAATTTATCAGTTGCTACATTAAATATACTAATATAAACGATTATAAATATTTGATATGTCTCAACTGCAATATTCTAAATTGACATATTGATTATTGTTTCCTCAAATCGTTTTAAAAAATAGAAGGATGATGAAAATGAAAACACGTATAGTCAGCTCAGTAACAACAACACTATTGCTAGGTT (double strand) [hla promoter fragment]", "binding": "binds"},
      {"sequence": "ACCTACCTTTCGTTAGTTAGGTTGTAAGCCATATGGTAATTGATAGTATTTTAATTTGCAATAGATTGTTGTTATAATTAAACGGAAATATTTGTAATTGCAACTTAATTTTCCTGTAACATAGTGTGATTAATTTTCAGTAGGGGGTTATAAAAATTGAAGGATAAGATTATTGATAACGCAATAACCTTATTTTCAGAGAAGGGGTATGACGGTACAACACTTGATGATATAGCT (double strand) [ica promoter (icaA) fragment]", "binding": "binds"}
    ]}
  ]
}
